Source: patent US20220256794A1, “TERPENE SYNTHASES AND TRANSPORTERS” (The State of Israel, Ministry of Agriculture & Rural …, priority 2019, published 2022)

B1: T-AG2575-2: Cannabis ABC-G transporter gene product, amino acid SEQ ID NO: 56 (protein)
chain: MEVGDLYRAGNSLRNISLRSSTSSVWRGNNNNNNNKDEYFSKSRREDDINDEEALTWAALEKLPTYDRLRKGILTTSKGETTEVDVINLGFKQRKDLLQRLVNVADEDNESFLLKLKQRIQTVGIDLPTIEVRFENVKVEADVHVGSRALPSFINFCINIIEMLVSFLPILKSKKKHVTILDDVSGAIKPGRLTLLLGPPSSGKTTLLLTLAGKLASELKFSGRVTYNGHEMNEFIPQRTAAYISQHDVHIGEMTVRETLSFSARCQGVGTRYEMLAELSRREKEANIKPDPDIDIFMKATSTEGQKSSVVTDYVLKILGLEVCADTVVGDEMLRGISGGQRKRVTTGEMLVGPSGVLFMDEISTGLDSSTTYQIVNSLKQYVHIFNGTNVISLLQPAPETYDLFDDIILLSDGHIVYQGPRENVLEFFEFTGFKCPERKAIADFLQEVTSKKDQAQYWTRGDEAYRFVSAKEFVEAFKSFHVGQKIREYLSTPFDKTKSHPAALTTKNFGLNKMELLKACMSREYLIMKRNSFVHIFKIVQLSVMGLIHGTLFLRTKMHHRTLEDGTIYLGSLFFAALMIMFNGMSEIPMTIAKLPVFYKQRDLQFFPAWAYAVPSMLFKVPIAFLEVAVWIILTYYTTGLEPSVVRMFRLYFILVIVNQMASGLFRSIAALSRNMIIANTFGAFSLLLLFVLGGFVLSRDDINSGWIWAYWVTPLMYGQTGILVNEFRGSKWNKVTPNSTETLGIQVLKSKGFFTDSYWYWLGFGVLVAYTVLFNILYTLALNYLNSIEKSQALSNEDPENNDHEIQVGRETRTNEIQQTSSINNTGENQSKKKGMILPFEPHSITFNDVIYSVDMPQAMKNQGVVEDKLVLLKGVSGSFRPGVLTALMGISGAGKTTLMDVLAGRKTGGYIEGDIRISGYPKKQETFARISGYCEQNDIHSPHVTVYESLLYSAWLRLPTEVDSEKRKMFIEEVMELVELTPLRQALVGLPGVSGLSTEQRKRLTIAVELVANPSIIFMDEPTSGLDARAAAIVMRTVRNTVDTGRTVVCTIHQPSIDIFEAFDELFLMKRGGEEIYVGPLGRHSCHLINYFEAIEGVSKIKNGYNPGTWMLEVSSSAQEIALGVDFANIYKNSELCKRNKDLIKELSSPAPGSKDLYFPTQFSRSLNTQCIACLWKQRQSYWRNPLYTAVRFMFTTFIALIFGTVFWDLGSKRSNIQDLSNALGSMYCAVLFIGIQNASSVQPVVSVERSVFYREKAAGMYSAFPYSFGQLVVEIPYILCQSVVYCLIVYAMIGFEWTAIKFFWFLFFSFFSMLYFTFYGMMAVGITPNNHIASIVSSAFYSVWNLFSGFIIPRTRMPVWWKWYYWGCPVSWTLYGLLVSQYGDVDDVINAVTGETVKQYLRSYLGYKHDFIGVVAVVNVLFALLFGSIFAFSVKILNFQNR
modifications: ABC+PTR Transporter amino acid sequence (of the 12 identified gene products)
B2: 792-7: Cannabis terpene synthase gene product, amino acid SEQ ID NO: 12 (protein)
chain: MSPCEATIDEKRPNMPKFTPTIWGDYFMSSASNHHHSSLMETMENNNKESYEKIIEMKEQVKNKLLHGLHPLENPLETLEYIDDIQRLGLSYYFENEIEQNLEQFHNNYQNLIDFGDNNLYADALCFRLLRQQGYNIACDIFDKYKNEKGKFKESISSDIRGMLNLYEAAQMRVHGEKILDEALIFTTTHLESSVKTCQLSSPYLDLVKHALMHPIRKSLQRREARLYISLYHQLPSHEEILLTLAKLDFNLLQKLHQKELSYITRWWKEFDYKSKHSFIKDRIVECYFWVYGVFFEAETSQIRLIITKLIAILTIIDDAYDSFGTLEELEPFTQAIERWDICAIDTLPEYMKIFYMKLLEIYNEIEQFSKERSYCPSYAKKGVQSLIRAYFKEAKWLHTKYIPTLDEYMPVGVDSAGSFMLISMVFIGMGDIVTKHSMDWIFSNPQPKIIQTMAIVGRVMNDIGYHKSERKKSSGEIVASTVECYMKQYGVTGEEAIEKLSEQVKDSWKDLNEDLLNPITIPRPLLMQVLKLVRVNHEIYREGDGFTQPTLLKNLIHSLIINPIDF
modifications: Terpene Synthase Gene Amino acid sequence of the 45 identified gene products
B3: 795-1: Cannabis terpene synthase gene product, amino acid SEQ ID NO: 18 (protein)
chain: MITGVISSSTTIFKEQPEAIVRRSGNYKPTLWDAHFFKSLQVIYTEESYGKRINELKEDVRRILEKEAENPLVKLEQINDLSRLGISYHFEDQIKTILNLTFNNNNALWKKDNLYATALHFKLLRQYGFNPVSSEVFNAFKDQKKEFKESLSKDVKGMVCLYEASFYSFRGEPILDEARDFTTKHLKQYLMTRQCQTKSVDHDDDHDLVKLVEHALDLPLHWRLPRLEARWFIDMYAERNYDMNPTFLDFAKLDYNFVQSAYQKELKYISRWWSGSRLTERLPFARDRVVEIFYSAVALKYEAEFGFVRTVMTKIGLLLTLMDDIYDVYGTLDELQLFLGAIERWNINELDQLPDYMKILFVAFYNNVNEISYYVLKENGIHIIKYLKKALGDLCKCYMEEAKWFHSGHIPSLEEFIENGWKSITIPLCLIYHYCLITTSITEQDMEHLLQYPTILRVSGTVFRFIDDLGTSSDELERGDNPSSIQCYMREKGVSENESREHIWNLISEGWKEINEVKASNSPYSQVFIESAIDFVRGAMEMYHKGDGFGTNQDRYLKTKVVNMFFDPIPI
modifications: Terpene Synthase Gene Amino acid sequence of the 45 identified gene products
B4: 796-3: Cannabis terpene synthase gene product, amino acid SEQ ID NO: 23 (protein)
chain: MDTQRKLQAEQLSCPTKSHELIFDHKSDHQRRSANYTPTIWKYDFLESLNNKYDSEEYKKRSEKLIEDVRHNIVETKDLKGMLELINTIRKLSLTYHFEDEVKKVLDKISSSNYYYNNKDIKDPRLVGDDLYLAALYFRLLRLHGYQVSQDIFVGYNSVDYKKGGGTHNITSTEVKVMIELLEASHVAFECEDTLTEAKALMEENLKIAFPDNCNKYIPKHEVVHALELPSHWRVQWFDVKWQIEAYRQHGDPDTNTTTTTSLLVDLAKLNFNIIQATLQKDLRELSSWWKNVGLSEKLEFARDRLVESFMCTVGLAFQPEYKSLRKCLTKVVNFILIVDDVYDVYGSLEELRHFTNAVNRWDVRETEELPDCMKICFQALYHTTCEIASEIETKNGCKLVLPNLKGAWTDFCKSLLMEAEWYHKGYIPSLEEYLSNAWISSSGPLLLLHSYLAMPNQTNTASSLDISKDLVYNISLIIRLCNDLGTSAAEQERGDAASSIVCYMQETKSSEEEARKHIREMIRKTWKKINKTCFSTCGSSSLSLSFIDIALNTARVAHSLYQSGDAFSAQHTDYKTHILSLLVHPLIPNK
modifications: Terpene Synthase Gene Amino acid sequence of the 45 identified gene products

Tests used:
[1] = test system: yeast cells; test: Yeast growth (turbidity A600) in the presence of CBD; assay type: cell-based, Saccharomyces cerevisiae (strain Y1HGold); conditions: 0.5 mM CBD, 7-12 hours, FIG. 2
Experimental: The genes were expressed in yeast and tobacco. For yeast, the ABC and PTR Transporter genes were synthesized by the TWIST Co, cloned and expressed (individually) in the yeast expression vector pESC-URA (Agilent Technologies) for expression under the yeast native gal-10 promoter. Competent Saccharomyces cerevisiae (strain Y1HGold, CloneTech) cells were prepared, transformed by each of the resulting vector and selected on yeast synthetic media lacking Uracil as previously described [GietzR. D., Methods Mol. Biol. (2014) 1205:1-12].
An alternative method is to measure the yeast growth as a function of turbidity. Transformed yeast cells were grown on URA-glucose broth at 30° C. at 200 RPM, and after 24 hours 100 μl was used to inoculate 5 ml of URA-galactose broth in the same conditions till O.D.600 of 1.5. The yeast was further diluted to OD600=0.05 with 10 ml URA-galactose, and divided into two 5 ml aliquots into separate 50 ml falcon tubes. The first falcon (control) was added 78 μl acetonitrile (the solvent that the CBD was dissolved in), and the second one was added 78 μl CBD solution in acetonitrile (final CBD concentration=0.5 mM). […]

[2] = Terpene synthase activity assay with GPP; assay type: biochemical; conditions: TPS expressed in E. coli; 10 μM GPP, overnight at 30° C., SPME GC-MS
Experimental: Putative terpene synthase genes were synthesized by the TWIST Co., and cloned into Novagen pET-28a(+) with a 6×His tag at its' N-terminus. The recombinant plasmid was then sequenced for authentication and transformed into BL21(DE3) pLysS and pLysE strains of E. coli (Agilent Technologies) for heterologous expression. An overnight culture was used to inoculate a 20-200 mL culture, induced with 0.1 mM IPTG at an OD 600 nm >0,8 for initiation of recombinant protein translation then incubated at 18° C. and 250 RPM overnight. The cells were collected by centrifugation and the recombinant enzymes were extracted either as a crude extract or purified on a Ni-NTA agarose resin as previously described [Gonda I. et al., The Plant Journal (2013) 61, 458-472].
To determine the terpene synthase catalytic activity, reaction mixtures containing 100 μl of protein extract or purified protein were incubated overnight at 30° C. with either 10 μM geranyl diphosphate (GPP) or farnesyl diphosphate (FPP), in a final volume of 200 μl using a buffer containing 50 mM bis-tris, pH 6.9, 1 mM DTT, 10% (v/v) glycerol, 0.1 mM of MnCl2 and 10 mM of MgCl2. The volatiles produced were extracted by solid-phase microextraction (SPME) according to the methodology previously described [Iijima Y. et al., Plant Physiol (2004) 136: 3724-3736]. As controls, reactions were carried out without the cofactors MnCl2 and MgCl2, or protein extracts were heat inactivated by incubation at 100° C. for 5 minutes, or a short peptide product of an empty pET100 vector was utilized.
For solid-phase microextraction (SPME) analysis, a 57298-U SPME fiber assembly Divinylbenzene/Carboxen/Polydimethylsiloxane (DVB/CAR/PDMS, Supelco) needle size 23 ga, StableFlex, was used with an autosampler and analyzed by GC-MS as previously described [Davidovich-Rikanati R. et al., Nature Biotech (2007) 25:899-901; Davidovich-Rikanati R. et al., Plant J (2008) 56:228-238]. The SPME fiber were adsorbed for 30 min. by automatic HS-SPME at 50° C. followed by injection of the fiber into a GC-MS injection port for 5 min. (splitless), for desorption of the volatiles. Chiral separation was conducted on a Restek Rt™-bDEXsm column (30 m length 0.25 mm i.d., 0.25 μm film thickness, 2,3-di-O-methyl-6-O-tert-butyl dimethylsilyl beta cyclodextrin added into 14% cyanopropylphenyl/86% dimethyl polysiloxane). Helium (0.8 ml min-1) was used as a carrier gas with splitless injection. The injector temperature was 250° C., and the detector temperature was 230° C. The following conditions were used: initial temperature 40° C. for 5 min., followed by a ramp of 2° C./min. to 110° C., and 10° C./min up to 230° C. (5 min.). A quadrupole mass detector with electron ionization at 70 eV was used to acquire the MS data in the range of 41 to 350 m/z. The identification of the volatiles was assigned by comparison spectral data with the W10N11 and HPCH2205 GC-MS libraries and with authentic standard when available.

Molecule	inhibition of yeast growth in response to CBD, transporter-expressing yeast vs control yeast [1]	Monoterpenes produced with GPP [2]
B1	reduced inhibition of growth	–
B2	–	beta-myrcene/geraniol
B3	–	geraniol
B4	–	geraniol
